Reference: the DeepSol protein solubility set

experiment: soluble on expression in E. coli; label from the status in PepcDB or PDB records

Row | Sequence | soluble on expression in E. coli
1 | MGGDMLPSVLKDNLRLPVIASPLFIISHPQLTLAQCKAGVIGAFPALNARPESQLDEWLAMITEELAAYNRANPERPAAPFAVNQIVHMSNRRLEHDLGLCVKYKVPVVISSLGAVPEVNAAVHSYGGIVLHDVINDRHARSAIRKGADGLIAVAAGAGGHAGTLSPFALIQEIREWFDGPLLLAGAIANGGSILAAQAMGADMAYIGSPFIATEEARASDGYKQALVDAQAKDIVYSNYFTGVHGNYLKSSIVASGMDPDNLPEADPSKMDFETATGGAKAWKDIWGAGQGIGAIKAVEPVAALVDRLAAEYEAAKGRICAKA | not soluble
2 | MGGMTGMNNNAIKVVSVLAIGARERIALVEVGQQQILLGITPSTIRTLHVFDEPVVDAGNAGSSDFARKLQSMIGKSWSAPERKDLEHHHHHH | not soluble
3 | MGGNMEDVKMKCGLEIHVQIDTKSKLFCNCSTNYLDAEPNTNVCPVCLGLPGAKPLPPNKKAVEVAIMVAKMLGCKIVVDEDIYFQRKHYDYPDLPSGYQRTSTPIGVDGEFMGIGIHEVHLEEDPGQYNPSFGIVDYNRSGTPLIEIVTKPDIKSPEEAREFLKQLMTLFRYLGCLRGEGTMRADVNISIEYMGVQGNRVEVKNVNSIKGVYKVLKYELIRQKNIIKRGGEVKRETRAFLESQMITKAMRSKETAEDYRYIPDPDIQPIVISEKWVKEIEEKMPETPLAKKKRFVEEYGIDEEDAKVLVSDLDMAEMFEEVVKSLGVNKENVDLAVTWIRNELRRSLQYHKVDLYESGVKAEHIVELIKLIKEGVISQKIAKEIVDLLVINRGKKMPKELVEELGLTVIRDEDALVKAVEEAIKNNPKAVEDYLNGKKEALNFLMGQVMRLTRGRADPKRVIELLKERLDK | soluble
4 | MGGSHHHHHHGMASALLDIECFTYLHRALESSIAPIVIFASNRGNCVIRGTEDITSPHGIPLDLLDRVMIIRTMLYTPQEMKQIIKIRAQTEGINISEEALNHLGEIGTKTTLRYSVQLLTPANLLAKINGKDSIEKEHVEEISELFYDAKSSAKILADQQDKYMK | not soluble
5 | MGGSHHHHHHGMASALSWKEARCQPAFLKDQARAIRLPPVDACRTQVRHGTGWGREPGILTGWGRRARDPDLGALPPGIQAAFCPGLPRCIEIELVHTAP | not soluble
6 | MGGSHHHHHHGMASLGMIKNSLFGSVETWPWQVLSKGDKEEVAYEERACEGGKFATVEVTDKPVDEALREAMPKVAKYAGGTNDKGIGMGMTVPISFAVFPNEDGSLQKKLKVWFRIPNQFQSDPPAPSDKSVKIEEREGITVYSMQFGGYAKEADYVAQATRLRAALEGTATYRGDIYFCTGYDPPMKPYGRRNEIWLLKT | not soluble
7 | MGGTLLNISPTQHKILKLLIENEKISMREISEKLSVNMSTVSRNFRSLLESGFALKVEEASPGSSGGRKTALYTANPNKFFILGIGVEQNRLIGVVIDAKGNEVEKSEIHRSFRGDEIVNALVDCVEPFKEKYPNTVGISIGMPGIIKENKVIFSSALGIEDLDLGRILSKEFGTEIFVLNDANAAVVGYGFQKKNVVYFLISVPYYLNQPVGVGAGLWLEGSLYQGSNGAAGEFEIDILPSILSGPATLDEVDLKNLSSDSFLKLLSKLSEVASFVSYLLDPETVIFGGDITLFSPEFHSGLAKNVRDHLEKRHISDVEVLFDERGLWTVAFGAAKAFWKRILEDYEFAGKILK | not soluble
8 | MGGVSDERLDLVNERDEVVGQILRTDPALRWERVRVVNAFLRNSQGQLWIPRRSPSKSLFPNALDVSVGGAVQSGETYEEAFRREAREELNVEIDALSWRPLASFSPFQTTLSSFMCVYELRSDATPIFNPNDISGGEWLTPEHLLARIAAGEAAKGDLAELVRRCYREEE | soluble
9 | MGHDLADIKKSFEASLPGYVEKKDPKSILPQPGKRNILITAALPYVNNVPHLGNIIGCVLSADVFARYCNLRGHQTFYVGGTDEYGTATETKALQEGCTPRELCDKYHAIHKGIYEWFGIDFSHFGRTTTDHQTEICQDMFLKLHKNGYTSSQSVDQLYCNQCEKFLADRFVTGTCPMCAYDDARGDQCDGCGKLINAVDLKDAKCHMCKATPEVKQSTHIFLSLDKLQQKTTEHLDRELAKEDNRWSSNAVGITKAWMKLGLDPRCITRDLKWGTAVPLDGFEKKVFYVWFDAPIGYLSITKCVLGDNWTKWWKNPENVELFNFVGKDNVAFHAVMFPCSQLGANDNYTVVNNLCATEYLNYEDTKFSKSRGTGIFGDAAQGTEIPADIWRFYLLYMRPESQDTAFSWDDFVLKVNSELLNNLGNFINRALSFVANSFGGVVPEMNLTNDDAEVLSEIHNECMQWDKQFDGVHLKDAVKTILNVSRLGNQYMQAQTPWVLMKKDEEGKKRAGTIIGVAANIAYHVSVLLYPIMPTISATIREQCGLPALPLFTPFPICYLKAGHKIGQPSPLFQKLDPAQIAEFKAKFGGSQDAQSSAPKTAEKPKQQKKQAPTKDKKGDKKMASTAAFVELEQGAKVISQLIAQNLKKFDQAKALFTRNQLQRLDGENKQLTIDVKTLQHQLIELETAAGIKQVPKPVVSCTPTPTSTPASGIITEAPKKEAPSTPAPSEPKKAKEQKKGKGGAAAAPVDDTIDVGRLDMRVGRIIKCEKHPDADALYVEQIDVGESAPRTVVSGLVRHVPLDQMQNRLVVVLCNLKPAKMRGVESRAMVMCASSPDKVEIMEVPADSKPGTPVVCPPYTHRPDEQLNPKKKIWETVAEDLKVSAEGFAEWKGQPLLIGSESKMTAPTLRGVHVK | not soluble
10 | MGHDTIAKFLLTSGSTGNPKAVINTQRMICANQVMIREAMAFLKDEPPVIVDWLPWNHTFGGNHNIGLTLFNGGSMYIDDGKPTPAGIASTIRNLREIAPTVYFNVPKGYESLLPVLREDQQLRKLFFSRLHAMFFSGASLAAHVWNGLDEVAVAETGARVPMLTGLGATETAPFFMSVTPQTSRSGHVGLPVPGLEHHHHHH | not soluble
11 | MGHHHHHHGGHMSLKNYFLQRRTLMTEQLPNCPECGSAYAYEDRGLFICPECGHEWSPTEEVAEEGLVVKDSNGNLLADGDSVTVIKDLKVKGASGAIKQGTKVKNIRLVEGDHNIDCKVDGFGPMKLKSEFVKKNEGGS | soluble
12 | MGHHHHHHGGHMSLKVFIDPDGDIEEIKEAFRLINPELYERLLKIDGSDEFFRYMVKPLRVSVRVNTLKAEVDEVVENLKELITGRVPWCEEGFYLSIDEFSRIPEHQLGLIFSQEAASMIPPLVMELEPKMTVLDIAASPGAKTTQIAQYLQNEGCIVANDVKHSRINILISNLQRCGVLIAKVTVKDGRYFGRFRNRFDAVLVDAPCSNMGMIRKNYRNIRLWKMRDCYGLSKLQKSLLMAAYKAVKPGGVVVYSTCTLEPIENEEVVDYILRNTDAEIEEVNLPVKGVEPFTKFDGKEYSEEVRKCLRLHPQSSDTEGFFVAKLRKPEGGS | soluble
13 | MGHHHHHHHHHHSSGHIEGRHMDINGVLLLDKPQGMSSNDALQKVKRIYNANRAGHTGALDPLATGMLPICLGEATKFSQYLLDSDKRYRVIARLGQRTDTSDADGQIVEERPVTFSAEQLAAALDTFRGDIEQIPSMYSALKYQGKKLYEYARQGIEVPREARPITVYELLFIRHEGNELELEIHCSKGTYIRTIIDDLGEKLGCGAHVIYLRRLAVSKYPVERMVTLEHLRELVEQAEQQDIPAAELLDPLLMPMDSPASDYPVVNLPLTSSVYFKNGNPVRTSGAPLEGLVRVTEGENGKFIGMGEIDDEGRVAPRRLVVEYPA | soluble
14 | MGHHHHHHSHAKGKERQWLRHQATGELDDAKIIDGLTGEKAIYKRRGELEPQLGSPQQKPKRLRLVVDVSGSMYRFNRMDGRLERTMEAVCMVMEAFENYEEKFQYDIVGHSGDGYNIGLVPMNKIPKDNKQRLEILKTMHAHSQFCMSGDHTLEGTEHAIKEIVKEEADEYFVIVLSDANLSRYGIHPAKFAQILTRDPQVNAFAIFIGSLGDQATRLQRTLPAGRSFVAMDTKDIPQILQQIFTSTMLSSV | not soluble
15 | MGHHHHHHSHAWSGVLEWQEKPKPASVDANTKLTRSLPCQVYVNHGENLKTEQWPQKLIMQLIPQQLLTTLGPLFRNSRMVQFHFTNKDLESLKGLYRIMGNGFAGCVHFPHTAPCEVRVLMLLYSSKKKIFMGLIPYDQSGFVNGIRQVITNHKQVQQQKLEQQQRGMGGQQAPPGLGPILEDQAR | soluble
16 | MGHHHHHHSHDSKACISIGNQNFEVKADDLEPIMELGRGAYGVVEKMRHVPSGQIMAVKRIRATVNSQEQKRLLMDLDISMRTVDCPFTVTFYGALFREGDVWICMELMDTSLDKFYKQVIDKGQTIPEDILGKIAVSIVKALEHLHSKLSVIHRDVKPSNVLINALGQVKMCDFGISGYLVDSVAKTIDAGCKPYMAPERINPELNQKGYSVKSDIWSLGITMIELAILRFPYDSWGTPFQQLKQVVEEPSPQLPADKFSAEFVDFTSQCLKKNSKERPTYPELMQHPFFTLHESKGTDVASFVKLILGD | not soluble
17 | MGHHHHHHSHEVIKGSWQPVGDLLIDSLQDHLEKVKALRGEIAPLKENVSHVNDLARQLTTLGIQLSPYNLSTLEDLNTRWKLLQVAVEDRVRQLHEAHRDFGPASQHFLSTSVQGPWERAISPNKVPYYINHETQTTCWDHPKMTELYQSLADLNNVRFSAYRTAMKLRRLQKALCLDLLSLSAACDALDQHNLKQNDQPMDILQIINCLTTIYDRLEQEHNNLVNVPLCVDMCLNWLLNVYDTGRTGRIRVLSFKTGIISLCKAHLEDKYRYLFKQVASSTGFCDQRRLGLLLHDSIQIPRQLGEVASFGGSNIEPSVRSCFQFANNKPEIEAALFLDWMRLEPQSMVWLPVLHRVAAAETAKHQAKCNICKECPIIGFRYRSLKHFNYDICQSCFFSGRVAKGHKMHYPMVEYCTPTTSGEDVRDFAKVLKNKFRTKRYFAKHPRMGYLPVQTVLEGDNMETPVTLINFWPVDSAPAS | not soluble
18 | MGHHHHHHSHHPFVRSAKGVSILRDLINEAMDVKLKRQESQQREVDQDDEENSEEDEMDSGTMVRAVGDEMGTVRVASTMTDGANTMIEHDDTLPSQLGTMVINAEDEEEEGTMKRRDETMQPAKPSFLEYFEQKEKENQINSFGKSVPGPLKNSSDWKIPQDGDYEFLKSWTVEDLQKRLLALDPMMEQEIEEIRQKYQSKRQPILDAIEAKKRRQQNF | soluble
19 | MGHHHHHHSHKIRVAHTPDADDAFMFYAMTHGKVDTWLEIEHVIEDIETLNRKAFNAEYEVTAISAHAYALLDDKYRILSAGASVGDGYGPVVVAKSEISLDGKRIAVPGRYTTANLLLKLAVEDFEPVEMPFDRIIQAVLDEEVDAGLLIHEGQITYADYGLKCVLDLWDWWSEQVKLPLPLGLNAIRRDLSVEVQEEFLRAMRESIAFAIENPDEAIEYAMKYSRGLDRERAKRFAMMYVNDYTYNMPESVDAALKKLYEMAEAKGLI | not soluble
20 | MGHHHHHHSHMAGWIQAQQLQGDALRQMQVLYGQHFPIEVRHYLAQWIESQPWDAIDLDNPQDRAQATQLLEGLVQELQKKAEHQVGEDGFLLKIKLGHYATQLQKTYDRCPLELVRCIRHILYNEQRLVREANNCSSP | not soluble
21 | MGHHHHHHSHMANSAGSMANSAGSMPSSPLRVAVVCSSNQNRSMEAHNILSKRGFSVRSFGTGTHVKLPGPAPDKPNVYDFKTTYDQMYNDLLRKDKELYTQNGILHMLDRNKRIKPRPERFQNCKDLFDLILTCEERVYDQVVEDLNSREQETCQPVHVVNVDIQDNHEEATLGAFLICELCQCIQHTEDMENEIDELLQEFEEKSGRTFLHTVCFY | soluble
22 | MGHHHHHHSHMANSAGSMANSAGSPELLTKHNRRVAQKTVESLKRSLMSTNLHPSKQVKTSSQYTIFSTPQIATTTPQTQVSPGMPLMFPGGSPNFVQDIKMENGFMDVDSQSSQCPSVERNFASPRSNCSTVDSIPPMQMGQNQTHLYLPDATNFTFNGNFASPSSNCSTVDSIPPFQIGQRNNHMYLPENSNFPVNGCSPTHFSGGSMTPINNNNNVLINNNNNDFLSQKMSAISIPPQGNFGIKQVYQQTQQFLPQLQPESIPYLAQSHPEQSQYQQQQQPQEQQPPADEPTQSFSDLISSSIGMAPIDTSELIQDIEAELNSLGIQPFK | not soluble
